Laboratory results from the DeepSol protein solubility set.

Assay: soluble on expression in E. coli; label from the status in PepcDB or PDB records

Sequence | soluble on expression in E. coli
MGSDKIHHHHHHMLFPDLANKIVREVRRLIKENIIIINIQGVIIASTDIERIGQFHEGALRCAKQKKTVIITKEDERRLQGVKAGMNLPLLFHDEVIGVIGITGEPENISQYGEILRKMTELLIHENYFLEQLELEHRSYEAFVFDWLQNTDWSPSFLDRAKTLGIDLYKKKQLILFSIDRNDTMLQRKVWQHVRNLLTKEHLFIRWGNDRFILFTATNSKEQTYQFLKRLKQDCETLFSVPLYIGIGQSVTPSNMNLSYEQALQALSVSLETKNIVFNEDLRLEMCLQDISAETREQFLKRTIENLLSSPELMHTLRLFIDYNQSYKQTAEQLHIHINTLHYRLKKIEEYTGLDPKQFKDLNILYFSLLLLDNHTKKNDKTD | not soluble
MSLSVTDVAGRTVSFDAQPKRILLAEGRALMATSVLNKENPAKDVVAIGADLHKAAPSFESALRQARPQVSKLPMIGSIAKGDVTVENMLSFKPDAVVMTLDQKEAAEKAGFLQKMDQAKLPYVFIDFRRKPLENTTKSMATLGKIFGGKAISRAKEFNKFYQSKVDDVSRRVSRESDKPRTFLWRAAGLKDCCSTYANLNLGDVITAAGGHNLGADLLRTSAGDVTPEKIVATQPEHIIATGGSWAKDPKKPESVPHVELGYNVTDDDAQRTLAGLLKTPGFSLLKAPKDGKLHAVYHQFYDSPFNVFALEQFAAWQHPKQFKGVDLTKDFAKFHEDYLPFGYRGVFFVTLKEGHHHHHH | soluble
MSLEAIRIGEINSYSQIPAFTLPYRNGWQLAVEQINAAGGLLGGRPLEVISRDDGGDPGKAVTAAQELLTRHGVHALAGTFLSHVGLAVSDFARQRKVLFMASEPLTDALTWEKGNRYTYRLRPSTYMQAAMLAAEAAKLPITRWATIAPNYEYGQSAVARFKELLLAARPEVTFVAEQWPALYKLDAGPTVQALQQAEPEGLFNVLFGADLPKFVREGRVRGLFAGRQVVSMLTGEPEYLNPLKDEAPEGWIVTGYPWYDIDTAPHRAFVEAYRARWKEDPFVGSLVGYNTLTAMAVAFEKAGGTESETLVETLKDMAFSTPMGPLSFRASDHQSTMGAWVGRTALRDGKGVMVDWRYVDGGSVLPPPEVVSAWRPAGEGHHHHHH | soluble
MSLVHPAGMAIMISGGIVQKIAPSDDILSEFAPWYPANSVSTDVEVIDIGEMSVVPGFVDSHTHLPWSGDRTNELTMRLRGKTYREIAQSGGGIMKTVSHTRSTPKRNLVASGISRVQECMRNGTTTLEAKSGYGLDLDSEVKLLEAISEIDRSTAIDIRATWLGAHDFPPEMGREDYVEHLISDQLPVISELSLARWVDVFCEQGWFTNEQTEDIVKASKDYGMKSRLHVDEFVDSGGLALAAELGSVSADHVACSNDDSRVSAAESGTVQTFLPGTPYVLGKSLELPIKKCITEDWPFSIATDFNPNCPITSLPLIGSFVTHRLGVDPIASLVAVTRNPATTMFDEEEPRGVISEGSIADMNVLWSSSADSWCQTPGSSPVRDTIKNGIIVNSNKTYEGHHHHHH | soluble
MRGYFIVLEGIDGSGKTTQAKLLAEWFEDKGYEVLLTKEPTDSELGKLIRRIILEESVIDGSKISYEAEALLFAADRAEHVKKIILPALSEGKVVICDRYFYSSLAYQWARGLDLNWLIQVNSFAPRPDLAILLDLPVKESLRRIKLRGTLTEFDKIVELQRKVRHNYLKLAEMFPEMRIVNALSSIEDIHSDIVALVKHELLGL | soluble
MDSHQQPYASQAQADTTLFPEQTRESLQALAVKLQPLIEGHRLDNLVDLLSLLSDIVDLLDPAMVDRLAQLFEQVTSVGWSVGNAVRVAKAELLREQPPSLKDLLRLLRDADSRRGLALVLGSLRSLGRQLAAEQEVAHGA | not soluble
MSLEAEGDEIYEDLMRSEPVSMPPKMTEYDKRCCCLREIQQTEEKYTDTLGSIQQHFLKPLQRFLKPQDIEIIFINIEDLLRVHTHFLKEMKEALGTPGAANLYQVFIKYKERFLVYGRYCSQVESASKHLDRVAAAREDVQMKLEECSQRANNGRFTLRDLLMVPMQRVLKYHLLLQELVKHTQEAMEKENLRLALDAMRDLAQCVNEVKRDEGHHHHHH | soluble
MAEHNELGKAGENAAVAYLEEHGYLIRHRNWRKGHFELDIVAAKENELVIVEVKTRSNTLFAQPEEAVDLPKIKRTVRAADAYMKLFQIDVPVRFDIITVIGENGNFRIDHIKEAFYPPLF | not soluble
MSLKLITNYQFLTYDGNYFHAEVIQSVLAECERAGIEIDTVLLDRDHQNDMEKFWDQIRSGAAEGVILVGVDMPPMLEVVRALGVPVVMVNGNDPNCQFDSVMPAFRDGSRIATRYLIEQGHRDIVHVTHLYRPLIRRRLDGFREALEEAGLPFSFERNVIDISSGHFSAEQAASVVAERIANGTLNATALFCVSDYTAFGVVQGILRSGKTVPGDYSVASFDDLPLAQLCRPALTSVGVDRRALGRIAVERLLSRLESVEGPTLRIEVGARLTIRDSTRPEGHHHHHH | soluble
MASDRKRQIIEAAAQSFAAFGYKATTMEQIAKLANVGKGTIYTFFKSKEELLDEIVSGLIMEIKAEAELAMDSSLPFSENVHRALYRILEFRQRHQLTAKLLQEVRNIGTVAVQEVLAKLDRAMVEFIRQKIDAAVEKGEIRPCNSEITAFLMLKTYIALIVDWEKDHEPLTKEQIAELFTLYFLQGLSR | not soluble
MAHHHHHHMGSTDGECASSLRGHRMPSWILSHLETESKCLNDTPLVEEEKAPPSVPVTVLKKRFPQGLKILKKAPPKEKIVMPVEEECADSCRSSRPSVSVQSAVPGNGHRIARHTIRFRMSDWANLIEEKKDLVAQAVKEDISEGCGLDIGRILQLELKLTDILVVTFIVDHSHDDGGERPFHARLKVCKFPRTSSLYLLR | soluble
MFSILLPTWNNLALLKLCVQSIRAHSAHDHQIIVHVNDGSDGTLAWVREQGLDHTHSPGNVGICLAVNESAMLARHDYIVYLNDDMVCCPGWDTALLRRLDTLDTDLFMLSGTMIEPVDTGNPCVVVGNYGRDADTFDAARLLADVPRLARGDWLGATWPPTLVHRRWWFKLGGYSSELTPGMSSDNDFSMKLWHAGCRIFLGAGDSLVYHFQCKSTGKVKKNDGRRQFLNKWGLSQSTFDKYFLRRGTPAGADWRLPEPELTSALRWDLRRNDLTRRLRPGVPVLLEHHHHHH | soluble
MEEKKDFYDTDELRDFMALVEKTNDIKKIALFRILAFTGIRKGELLALEWKDYRKSTLDINKAISHSPVGYEILPPKANSNRLLSLDEKTCKILDELHQTYPESTRIFESENGGMLSPSKPRKWLLEITKEKEIEPIRIHAFRHTHASLLFESGMSLKQVQYRLGHADLKTTMNIYTHITKLEHHHHHH | soluble
MGSDKIHHHHHHMDKAGKETPFWVQKTLAQLNAHEWEALCDRCGLCCLVKAEDEEAGDIYLTSLICPFFDLKTKVCSCYSQRKQQNPDCSTLTPMTVQTYDWLPDHCAYRLVAAGKPLPTWHPLISGRHDTVVNVMNYFKGVKIRHLQPHSDLEDYLILDPPEG | not soluble
GVSTAVAQDFTIAAKHAIAVEANTGKILYEKDATQPVEIASITKLITVYLVYEALENGSITLSTPVDISDYPYQLTTNSEASNIPMEARNYTVEELLEATLVSSANSAAIALAEKIAGSEKDFVDMMRAKLLEWGIQDATVVNTTGLNNETLGDNIYPGSKKDEENKLSAYDVAIVARNLIKKYPQVLEITKKPSSTFAGMTITSTNYMLEGMPAYRGGFDGLKTGTTDKAGESFVGTTVEKGMRVITVVLNADHQDNNPYARFTATSSLMDYISSTFTLRKIVQQGDAYQDSKAPVQDGKEDTVIAVAPEDIYLIERVGNQSSQSVQFTPDSKAIPAPLEAGTVVGHLTYEDKDLIGQGYITTERPSFEMVADKKIEK | soluble
MGHHHHHHSHKPGLSTSIPLRMSSYTFKRPVTRITPHPGNEVRYHQWEESLEKPQQVCWQRRLQGLQAYSSAGELSSTLDLANTLQKLVPSYTGGSLLEDLASGLEHSCPMPHLACSSDAVEIIPAEGVGISQLLCKQFLVTEEDIRKQEGKVKTVRERLAIALIADGLANEAEKVRDQEGCPEKR | not soluble
GEKGTTGTGNAALDNIFERKSVRTYLNKGVEKEKIDLMLRAGMSAPSGKDVRPWEFVVVSDRAKLDSMAAALPYAKMLTQARNAIIVCGDSARSFYWYLDCSAAAQNILLAAESMGLGAVWTAAYPYEDRMEVVRKYTHLPENILPLCVIPFGYPATKEQPKQKYDEKKIHYNQY | soluble
MVAQNPTSISSGGRKQPQKQDKVQKKQLKKIYVVKIKRIPFGFFEKELLGYFRQFGNVLRIRVARNRRTGNHKGWAYVGFDNKAVAEIAAESMNGYLMFEQRLGCTVMKPELIPKAMRHGPLLVMRPSYLGIAKKDTIARNNTTGKNDVINAKKRVQNLNKTLKKLQNMGINYDFSVSGTPRTPLKKVIDNEVQFISDVTPKSTTPKIVKAATPKAATPKAVTPKQATPKVSTPVTKKVVIKTPKTEKPEPKQFTPKTRAGKKAAAAATPQAKSTLSNTILKSVAASARPAAVEKKTLRSRGKKKSL | soluble
MSLSKILPVVTACLLATTMGASASSIPEKASVCSGCHGQDGMGQPNIAPMIAGLNANYLNTQIELFLSGERQNVVMQGMAKELSDPAVRKEVMNYFANLPSYEFTNPEQRGDQADIRNPYRKLIFQGDWDRNIPACATCHGASGMGVDKFPRLASQHADYLKTQLMAWKIGTRSGDPLNMMGTIAKNLTDEEIENLSYYFASLRYEGHHHHHH | not soluble
MSEMTPREIVSELDQHIIGQADAKRAVAIALRNRWRRMQLQEPLRHEVTPKNILMIGPTGVGKTEIARRLAKLANAPFIKVEATKFTEVGYVGKEVDSIIRDLTDSAGGAIDAVEQNGIVFIDEIDKICKKGEYSGADVSREGVQRDLLPLVEGSTVSTKHGMVKTDHILFIASGAFQVARPSDLIPELQGRLPIRVELTALSAADFERILTEPHASLTEQYKALMATEGVNIAFTTDAVKKIAEAAFRVNEKTENIGARRLHTVMERLMDKISFSASDMNGQTVNIDAAYVADALGEVVENEDLSRFIL | soluble
MGPLCAVCESPTAFTLHFGGRCCKACAAFFRRTIALDLKYECAADDPCEIHFKFPGMRLVCRECRLRKCYSAGMRSELVRSKRENFACTRRKDSRNNSDAAPNSNSPSTRQSSSPEEMDDWSFQMFEEKPKIEDLPLTPSISHPPLPTQLMPEESSRTSSFDGGYCSSYPSSSAATHPSPPGMLYSIENNSILQYYHSMETGLCSKRRIMYTNTGMDFILDTHANLQCPFTVNDLRPHDYRNFRGMLRHDFVMLFDYATRFPEFNSFTSHEKNMFYRQIVAVDFILSSAYYTAKLGQAHRQMVLTNGEYLNMDPLPMSGNEIDARRYFDCDEDFSKYRALMPMHIAIWEESIVPFSKLNVTFEEFCLLKALTVWQATYFKLTENGREKCRRQRNIIIGFLSKMCHSPGGGGEHRVGELLMSMNYLRESAQKLTTSYVMLTVFNVLNCDSMLHEMLNFQY | not soluble
MGSDKIHHHHHHMTQSFIVDEAFWQLFPEVEIAFLTAQDIDNHAKEQVPTDLLTTANHVAATKWVPNDPISQNTVVQDWRQAFQQFKTKKGARCAVENLLKRAKNGKGVGTINPVVDVYNSVSLEWAFPVAAEDMDQIKGDIHLTVAQGGERFRPIGEDDVETALPGEVIYRDAYDVISRCWAWRDSARVEATEATQNLLFYMENVNPQRHADHVAATAALRTRLHDYLGISTTLHVVTHDQPSVAFKD | not soluble
